For five variants, Kd results are on record in paper PMC10192418, “High-affinity peptides developed against calprotectin and their application as synthetic ligands in diagnostic assays” (Nature Communications, 2023).

First the molecules themselves.
B1: linear peptide 3 [modified: 5(6)-carboxyfluorescein on the N-terminus; 5(6)-carboxyfluorescein on the N-terminus] / B-RCAL (BÜHLMANN recombinant calprotectin; His6-linker-S100A9-linker-S100A8) [human] (parent)
chain 1: RSPESVAFPMFQSHWYSG
chain 2: MTCKMSQLERNIETIINTFHQYSVKLGHPDTLNQGEFKELVRKDLQNFLKKENKNEKVIEHIMEDLDTNADKQLSFEEFIMLMARLTWASHEKMHEGDEGPGHHHKPGLGEGTPLEVLFQGPMLTELEKALNSIIDVYHKYSLIKGNFHAVYRDDLKKLLETECPQYIRKKGADVWFKELDINTDGAVNFQEFLILVIKMGVAAHKKSHEESHKE

The variants in this test derive from B1. Nature of the test: fluorescence polarisation. As to conditions: with B-RCAL (BÜHLMANN recombinant calprotectin; His6-linker-S100A9-linker-S100A8) [human]; one measurement. In general terms: Fluorescence polarisation rises when a labelled molecule tumbles more slowly, as on binding a larger partner.
Turning to chain 1 Q12A, the Kd (in general, the concentration at which binding is half-saturated) was found to be 27 nM. For chain 1 A7G, the Kd was 29 nM. With chain 1 P3A, the Kd worked out at 28 nM. The value for chain 1 V6A was 39 nM; that for chain 1 R1A was 32 nM.
